Laboratory results as given in the supplement of paper PMC9170038.

Test system: MS2 coat protein
Assay: apparent KD of MS2 coat protein; designed switch direction (-1 OFF switch, 1 ON switch): 1; higher = weaker reporter binding
Method in brief: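 RNA switches sharing common flanks were transcribed by stalled E. coli RNA polymerase on Illumina chips. A doubling series of SNAP-549-labelled MS2 coat protein, from 0.7 or 1.5 nM to 3 µM, was applied in Tris-HCl pH 7.5 buffer with KCl, MgCl2, BSA, DTT, tRNA and Tween-20. Each step lasted 0.8–1.5 h at the bottom of the series and 10–20 min at the top. Normalised cluster fluorescence was curve-fitted, giving apparent KD as the per-design median over clusters.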

[1] = input ligand: microRNA oligo, concentration not stated
[2] = Eterna round: R95, input ligand: FMN 200 uM
[3] = Eterna round: R95, input ligand: microRNA oligo, concentration not stated
[4] = Eterna round: R95, input ligand: none

Sequence	apparent KD of MS2 coat protein (input ligand: FMN 200 uM) [nM]	apparent KD of MS2 coat protein [1] [nM]	apparent KD of MS2 coat protein (input ligand: none) [nM]	apparent KD of MS2 coat protein [2] [nM]	apparent KD of MS2 coat protein [3] [nM]	apparent KD of MS2 coat protein [4] [nM]
AUUGGGUAACGAGGAUAUCGUAUUUGUUUGUUUCGAGAAGGCGUUAUAGUUUCUUUCUAUUGUUACAUGAGGAUCACCCAUGUU [JR_SSNG1_Sub052] (Eterna round: R96, puzzle: Same State NG 1)	19.1	15	19.9			
GUUACAUGAGGAUCACCCAUGUGUGUGUGGGAGUGAGUGGCUUAGGAUAUCUAUGAUUUUAGUUAAGAGAAGGAGGAUUGCUGU [SS-NG3-LRO07] (Eterna round: R96, puzzle: Same State NG 3)	275	267	414			
GUAGAUAUAGAGGAGGAUAUUCAAUGAGGAACAUGAGGAUCACCCAUGUAAGAGAGAGAUGAUGAGAAGAAGGCUUAGAGGGAUG [Altered State 2-3 - Jieux - Same State 2] (puzzle: Same State 2)				46.5	84.6	62
CAUCCCUCCACAGGAUAUCGACCGAUAAAACGGCGAGAAGGGUGGCCACAUGAGGAUCACCCAUGUGGAAUUGGAUGAGCUACA [Enlaed] (Eterna round: R96, puzzle: Same State NG 1)	78.7	66.6	126			
UAGUGAUUGCAAGGAUAUGCUAGUUUUUAUUUGUGUUUGAUAACAAACAUGAGGAUCACCCAUGUGCAGAAGGUGCUAGAUAUG [JR_SSNG2_Sub079] (Eterna round: R96, puzzle: Same State NG 2)		348				
UGUAAACAUGAGGAUCACCCAUGUUUUUUCAUGGGAGGAUAUCUGAGUUAAGUAUAUUAAGGAGAAGGCCUAUUGU [× ×•×ª×• ×ž×“×™× ×” × ×—×ª-02] (puzzle: Same State 1)				83.8	78	286
AGGGAGGAAGCUGAGGAUAUCGUAAGGAGGACAUGAGGAUCACCCAUGUGUAUAGAAUUGGAGGACGAGAAGGCAGAGGAGUGGG [JR_SS2_Sub052] (puzzle: Same State 2)				25.5	29.3	25.6
UAGAGAGGAAGCGAGGAUAUCGUGUUAGGUACAUGAGGAUCACCCAUGUUGUAGGUAGAGGUAGGCGAGAAGGCGCAGGAGAGGA [JR_SS2_Sub092] (puzzle: Same State 2)				35.6	37.6	66.2
GGUGCCAAUAAAGCCUACAUGAGGAUCACCCAUGUAUGUAGGCAGGAUAUCGUAUGCAAAGCAUACGAGAAGGGCCGAGGCACC [Mat - Same State NG 3 - JL Mod - D56] (Eterna round: R96, puzzle: Same State NG 3)	18.7	29.1	37			
AUAAGGCAAGCUUUUUUCUCGUAGUGUAAACAUGAGGAUCACCCAUGUGCCCACCCUGGAUCUUUGGAUCCCAGAAC [Sobeedbeon] (puzzle: Sensor for hsa-mir-208a)				23	15.3	22.4
AUAAGUUCGAUGCUCGUCUUUCCGUACAAACAUGAGGAUCACCCAUGUGAUCGGGAAGUAGCCCGAUCAGUAUGGCC [Leceen] (puzzle: Sensor for hsa-mir-208a)				30.6	16.3	27.5
UUGAAGAAUUAAGGAUAUUGAUUACAUAUGUUAAACAUGAGGAUCACCCAUGUGGGUUGCGGUAUCGAGAAGGUAAAUUAAUAG [Mat - same State NG 2 - JL mod - D77] (Eterna round: R96, puzzle: Same State NG 2)		89.6				
AUAAAACAUGAGGAUCACCCAUGUCAACAAAGUCGAGGAUAUGGGCAAAUAAAAUAAGAACCAGAAGGCGAAUUAU [salish99_ss1_r3_036] (Eterna round: R96, puzzle: Same State 1)	36.8	185	247			
GGUCCAGCCUGAGCUGGACAAAAGCAUGUACAUGAGGAUCACCCAUGUCAUGUACAAGCUUUUUGCUCGUCUUAAUU [Mat - hsa-mir-208a - 87] (puzzle: Sensor for hsa-mir-208a)				514	15.1	762
UGAAUAGUUACAGGAUAUGAGCCGUAAAUUGGGUCAGAAGGGUGGGUGUUCUGCGCUGUGUGUUACAUGAGGAUCACCCAUGUU [SameState NG1 #31] (Eterna round: R96, puzzle: Same State NG 1)	162	34.9	63.4			
AUAAAACAUGAGGAUCACCCAUGUCUACAAAGUCGAGGAUAUGGGCAAAUAAUAUAAGAACCAGAAGGCGAAUAAU [SS1 Teenbexe 1] (puzzle: Same State 1)				54.2	565	14400

Sequence	apparent KD of MS2 coat protein (input ligand: FMN 200 uM) [nM]	apparent KD of MS2 coat protein [1] [nM]	apparent KD of MS2 coat protein (input ligand: none) [nM]	apparent KD of MS2 coat protein [2] [nM]	apparent KD of MS2 coat protein [3] [nM]	apparent KD of MS2 coat protein [4] [nM]
GUGGUCAGACAUGAGGAUCACCCAUGUGGAAUAAAUAAGGACUAGGAUAUGGAAUAUAGGAUAUACCAGAAGGAGUGGUUGGUG (Eterna round: R96, puzzle: Same State NG 3)		36.5				
GACCGCGAGGAAGGAUAUGGAGCCUUAUUGGCUCCAGAAGGUCCAUAAAGGACAUGAGGAUCACCCAUGUGGGUUGAAGCGGUC [Fiskers NG1ss - 38] (Eterna round: R96, puzzle: Same State NG 1)	24.6	125	173			
ACAAAGAACACAGGAUAUCGGAAAGGAAGUGUACGAGAAGGGUGGUCAACAGUACAUGAGGAUCACCCAUGUGGUGGAUGGCAA [PowerStrip SSNG 1.12] (Eterna round: R96, puzzle: Same State NG 1)	177	2.42	1440			
GUUCGGAAUCGAGCUGACAUGAGGAUCACCCAUGUUAGUGGGAAGGAUAUGGUACAGAAACUGUACCAGAAGGUCCUGCUGUCU [MOD2 Omei's SS(NG) 3 AV9] (Eterna round: R96, puzzle: Same State NG 3)	38.2	57.2	59.5			
GCAGGACGAUAAUAUAACUUCACAUGAGGAUCACCCAUGUCUCAGGAUAUGGAUCCUAAUUGGAUCCAGAAGGGAGCGUCCUGC [Fiskers NG3ss - 34] (Eterna round: R96, puzzle: Same State NG 3)	14.5	25.9	35.1			
GAGCCAGUCCGAGGAUAUUACAUGAGGAUCACCCAUGUAGGCUCAGAAAAGAAAAGAGAGCCUUGGGAGAAGGCGGACUGGCUC [Xeonanisa<<9] (Eterna round: R96, puzzle: Same State NG 2)	8.19	20.1	39.1			
ACAUUUAGCUCUUGCACAUGAGGAUCACCCAUGUUCAGUUCACAGGAUAUCUAGUCAAACGGAUCGGAGAAGGGUGGCAGGAGC [Erquzaa] (Eterna round: R96, puzzle: Same State NG 3)	86.3	185	294			
GCUAGUAAAAUUGCUAACAUGAGGAUCACCCAUGUAUGUUGGCAGGAUAUCGUUUGCAAAGCAAACGAGAAGGGCUAAACUAGC [Mat - Same State NG 3 - JL Mod - D15] (Eterna round: R96, puzzle: Same State NG 3)	30.2	47.5	86.8			
AUUUUAGUCAGAGGAUAUUGUUUAUCUCUAUUACAAGAAGGCUGAUCUUACUACCCACUUAUGAAACAUGAGGAUCACCCAUGU [JR_SSNG1_Sub016] (Eterna round: R96, puzzle: Same State NG 1)	17.4	20.6	25.8			
UGGAGACGUCAAGGAUAUGCUACCGUUUCGGUAGCAGAAGGUGAUCACAUGAGGAUCACCCAUGUAUGCAUGCGUGAGCGUGCU [JL SSNG1 3.52] (Eterna round: R96, puzzle: Same State NG 1)	72.1	2.49	6.24			
GAGUAGGAGUUACAGGAUAUAUGGAGGAGGACAUGAGGAUCACCCAUGUGAGAGAUGAGAGGAGGAUAGAAGGGUAAGGGAGUAA [JR_SS2_Sub028] (puzzle: Same State 2)				24	20.6	46.2
AUAAAACAUGAGGAUCACCCAUGUCAACAAAGUCGAGGAUAUGGGCAAAUAAAAUAAGAACCAGAAGGCGAAUAAU [Teenbexe] (Eterna round: R96, puzzle: Same State 1)	42.1	207	273			
UUUAAACAUGAGGAUCACCCAUGUCAACAAAGUCGAGGAUAUGGGCAAAUAAAAUAAGAACCAGAAGGCGAAUAAU [salish99_ss1_r3_068] (puzzle: Same State 1)				49.2	585	334
UUAUAACAUGAGGAUCACCCAUGUCAUCUAAGUCGAGGAUAUGGGCAAAUAUAAUAAGAACCAGAAGGCGAAUAUU [Mat - Same State 1 - Mod of UCT - D33] (puzzle: Same State 1)				141	14.2	49.9
AUUGCUUACGCAGGAUAUGAUGCGAAAAUUGCGUCAGAAGGGUGAAGUGACUCGUAGCAACAAGACAUGAGGAUCACCCAUGUC [SameState NG1 #93] (Eterna round: R96, puzzle: Same State NG 1)	28.2	26.4	42.1			
